According to paper PMC11798907:

Key:
Test in all cases: EMSA
Conditions in all cases: LightShift Chemiluminescent EMSA kit protocol; 20 fmol biotin-labeled DNA, 4 pmol protein (where stated); buffer, salt, pH and temperature not stated
[1] = system: GmRAV1 (Glycine max), ORF:a1ee9a9b
[2] = target: T1, OsWRKY121 (Oryza sativa) (UniProt Q75KW2)
T1 sequence: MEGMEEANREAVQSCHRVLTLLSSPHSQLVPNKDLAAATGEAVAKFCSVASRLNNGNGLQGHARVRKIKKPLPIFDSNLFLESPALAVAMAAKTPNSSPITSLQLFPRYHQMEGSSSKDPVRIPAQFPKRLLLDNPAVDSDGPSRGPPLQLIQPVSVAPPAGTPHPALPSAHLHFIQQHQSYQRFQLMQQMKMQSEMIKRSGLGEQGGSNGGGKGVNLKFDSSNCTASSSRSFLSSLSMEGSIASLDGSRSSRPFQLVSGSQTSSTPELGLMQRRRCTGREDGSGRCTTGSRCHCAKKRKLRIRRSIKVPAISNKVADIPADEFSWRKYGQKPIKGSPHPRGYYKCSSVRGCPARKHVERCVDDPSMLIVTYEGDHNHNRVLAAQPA

[3] = target: OsWRKY71 (Oryza sativa) (UniProt Q6QHD1)
Chain of OsWRKY71 (Oryza sativa) (Q6QHD1 whole entry): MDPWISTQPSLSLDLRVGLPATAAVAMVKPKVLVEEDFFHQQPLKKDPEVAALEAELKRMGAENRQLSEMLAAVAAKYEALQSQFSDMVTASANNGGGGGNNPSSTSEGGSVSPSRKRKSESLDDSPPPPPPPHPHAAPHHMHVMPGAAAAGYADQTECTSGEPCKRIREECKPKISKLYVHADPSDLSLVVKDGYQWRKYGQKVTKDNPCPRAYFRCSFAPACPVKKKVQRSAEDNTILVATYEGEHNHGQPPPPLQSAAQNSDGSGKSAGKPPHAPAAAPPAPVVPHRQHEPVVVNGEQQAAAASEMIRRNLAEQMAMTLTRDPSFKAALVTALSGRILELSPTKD

Chain of GmRAV1 (Glycine max), ORF:a1ee9a9b (chain, as listed by the source): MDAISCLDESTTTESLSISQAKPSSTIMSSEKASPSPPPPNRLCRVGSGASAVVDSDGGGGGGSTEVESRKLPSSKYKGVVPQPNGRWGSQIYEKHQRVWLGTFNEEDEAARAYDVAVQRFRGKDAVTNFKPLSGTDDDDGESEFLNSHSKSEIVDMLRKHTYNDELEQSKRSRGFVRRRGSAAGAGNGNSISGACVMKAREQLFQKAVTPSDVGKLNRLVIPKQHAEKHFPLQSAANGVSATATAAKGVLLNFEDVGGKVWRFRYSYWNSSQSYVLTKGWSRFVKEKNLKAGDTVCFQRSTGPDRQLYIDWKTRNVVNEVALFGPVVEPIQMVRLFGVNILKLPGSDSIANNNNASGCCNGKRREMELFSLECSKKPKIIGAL

| Sequence | binding [1] | binding [2] | binding [3] |
| --- | --- | --- | --- |
| TAAAAGAAACAAGATTAAATTACGTATTTAATAATTTAAGATTAATGTTGTTTAATTTGATTTTTTAAATATTTATCTTTCTTTTGAATTTGATTCTTTAGTTCACTTAAG (double strand) [GmNF-YC4-1 promoter P4] | no binding |  |  |
| AACAGCTTGTTGACTGGCTCCCTAGAGCTTTTTGTAAGTTGATCATCGAAGTAGCTAGTTCTCTTCACTTATCAGTCATCACTGTTCTATGTTCTATCTGCATTTTCCTTGATTTTGTACTTTTCCTGAACGAAAGGACAATCCTTAGCCATCATAATGCTATGATCGACTTATTCTGAAGTCATCCGGCCTCGATCCT (double strand) [OsNF-YC4 promoter 198-bp] |  | binds |  |
| GGCATTGACATGGATGGATGGAACACCCTCATAGTCACATGCCACAACAGAGTAACGCTAAACAAAATGTATTAACAAAAACTATAGGATCATGCTTTCTTAATTTAAAAACATAGGTGGTCAGTTTTTGTTAACATTAATTTTTAGGATTATTTGTTGAAGACAAATATGGAAGGTTTATAATAATTTATGTGCATTACTCAATGTAATCC (double strand) [GmNF-YC4-1 promoter P5] | binds |  |  |
| GGCATTGACATGGATGGATGGAACACCCTCATAGTCACATGCCACAACAGAGTAACGCTAAACAAAATGTATTAACAAAAACTATAGGATCATGCTTTCTTAATTTAAAAACATAGG (double strand) [GmNF-YC4-1 promoter P1] | no binding |  |  |
| TCCTGAACGAAAGGACAATCCTTAGCCATCATAATGCTATGATCGACTTATTCTGAAGTCATCCGGCCTCGATCCTCTTTTGT (double strand) [OsNF-YC4 promoter P3] |  | no binding | no binding |
| GATTAATAATATCCCTAATATTGTGAACAAACTTTGTTGGTAATGTAAAAAAAATTAAAAGAAACAAGATTAAATTACGTATTTAATAATTTAAGATTAA (double strand) [GmNF-YC4-1 promoter P3] | binds |  |  |
| AGCATTATGATGGCTAAGGATTGTCCTTTCGTTCAGGAAAAGTACAAAATCAAGGAAAATGCAGA (double strand) [OsNF-YC4 promoter P4] |  |  | no binding |
| CCCTAATATTGTGAACAAACTTTGTTGGTAATGTAAAAAAAATTAAAAGAAACAAGATTAAATTACGTATTTAATAATTTAAGATTAATGTTGTTTAATTTGATTTTTTAAATATTTATCTTTCTTTTGAATTTGATTCTTTAGTTCAC (double strand) [GmNF-YC4-1 promoter P6] | binds |  |  |
| ACCAGAGTTCTTTTTCCCCCTCTTCTACATAAACGAAAACAGCTTGTTGACTGGCTCCCTAGAGCTTTTTGTAAGTTGATCATCGAAGTAGCTAGTTCTCTTCACTTATCAGTCATCACTGTTCTATGTTCTATCTGCATTTTCCTTGATTTTGTACTTTTCCTGAACGAAAGGACAATCCTTAGCCATCATAATGCTATGATCGACTTATTCTGAAGTCATCCGGCCTCGATCCTCTTTTGT (double strand) [OsNF-YC4 promoter P5] |  | binds | binds |
| GGATTACATTGAGTAATGCACATAAATTATTATAAACCTTCCATATTTGTCTTCAACAAATAATCCTAAAAATTAATGTTAACAAAAACTGACCACCTATGTTTTTAAATTAAGAAAGCATG (double strand) [GmNF-YC4-1 promoter P2] | binds |  |  |
| TGGCTCCCTAGAGCTTTTTGTAAGTTGATCATCGAAGTAGCTAGTTCTCTTCACTTATCAGTCATCACTGTTCTATGTTCTATCTGCATTTTCCTTGATTTTGTACTTTTCCTGAACGAAAGGACAATCCTT (double strand) [OsNF-YC4 promoter P2] |  | binds | binds |
